Measurements from PMC9482650, “Quantitative fragmentomics allow affinity mapping of interactomes” (Nature Communications, 2022).

What was measured:
Test in all cases: holdup assay
Parameters in all cases: key: below the threshold = too weak to quantify, mostly under pKd 3.1 to 4
Details in all cases: plain residues with an end cap or a label only (N-terminal biotin on a linker: ttds)
[1] = target: T1, SYNPO2L, Q9H987
T1 sequence (Q9H987 1-98, limits assumed, looked up): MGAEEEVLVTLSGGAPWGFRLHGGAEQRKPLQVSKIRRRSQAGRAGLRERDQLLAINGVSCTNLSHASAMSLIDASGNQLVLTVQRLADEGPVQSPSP

[2] = target: T2, PDZD2_4, O15018
T2 sequence (O15018 723-823, limits assumed, looked up): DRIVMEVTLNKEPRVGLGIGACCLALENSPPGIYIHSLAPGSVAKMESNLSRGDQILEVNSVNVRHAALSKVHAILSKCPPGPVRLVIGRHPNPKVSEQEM

[3] = target: T3, SHANK3, Q9BYB0
T3 sequence (Q9BYB0 641-750, limits assumed, looked up): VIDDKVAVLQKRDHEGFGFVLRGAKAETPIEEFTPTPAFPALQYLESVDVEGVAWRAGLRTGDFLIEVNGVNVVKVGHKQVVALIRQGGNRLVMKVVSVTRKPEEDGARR

[4] = target: PREX1_1, Q8TCU6
[5] = target: T4, TJP3_1, O95049
T4 sequence (O95049 6-103, limits assumed, looked up): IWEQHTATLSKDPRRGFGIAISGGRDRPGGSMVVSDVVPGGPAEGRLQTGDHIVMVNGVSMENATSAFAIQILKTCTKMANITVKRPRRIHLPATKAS

[6] = target: T5, NHERF1_2, O14745
T5 sequence (O14745 149-244, limits assumed, looked up): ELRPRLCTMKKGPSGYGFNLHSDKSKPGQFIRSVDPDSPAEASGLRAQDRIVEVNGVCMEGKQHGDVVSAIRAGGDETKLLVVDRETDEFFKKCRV

[7] = target: T6, PDZD2_5, O15018
T6 sequence (O15018 2617-2716, limits assumed, looked up): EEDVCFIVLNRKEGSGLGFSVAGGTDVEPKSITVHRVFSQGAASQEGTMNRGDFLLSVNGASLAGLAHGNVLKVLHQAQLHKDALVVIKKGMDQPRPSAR

[8] = target: T7, LNX2_4, Q8N448
T7 sequence (Q8N448 595-690, limits assumed, looked up): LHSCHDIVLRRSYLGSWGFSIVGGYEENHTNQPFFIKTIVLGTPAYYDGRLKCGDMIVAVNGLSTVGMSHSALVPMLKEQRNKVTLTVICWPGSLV

[9] = target: DLG2_1, Q15700
[10] = target: T8, NHERF3_2, Q5T2W1
T8 sequence (Q5T2W1 129-225, limits assumed, looked up): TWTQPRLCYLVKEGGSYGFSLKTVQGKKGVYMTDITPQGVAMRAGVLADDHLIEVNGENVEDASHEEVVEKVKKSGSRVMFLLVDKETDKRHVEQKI

[11] = target: MAGI3_3, Q5TCQ9
[12] = target: T9, SNTB2, Q13425
T9 sequence (Q13425 110-208, limits assumed, looked up): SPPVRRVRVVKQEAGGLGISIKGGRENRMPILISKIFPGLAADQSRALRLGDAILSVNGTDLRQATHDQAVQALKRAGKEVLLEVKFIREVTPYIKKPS

[13] = target: SDCBP_1, O00560
[14] = target: T10, GRIP1_1, Q9Y3R0
T10 sequence (Q9Y3R0 48-146, limits assumed, looked up): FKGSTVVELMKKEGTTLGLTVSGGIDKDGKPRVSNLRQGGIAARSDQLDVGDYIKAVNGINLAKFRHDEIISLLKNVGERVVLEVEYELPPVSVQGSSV

[15] = target: T11, MPP1, Q00013
T11 sequence (Q00013 66-162, limits assumed, looked up): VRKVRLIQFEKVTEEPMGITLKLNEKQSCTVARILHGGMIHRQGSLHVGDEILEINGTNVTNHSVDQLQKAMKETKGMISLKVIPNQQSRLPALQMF

[16] = target: PARD3B_3, Q8TEW8
[17] = target: T12, MPDZ_13, O75970
T12 sequence (O75970 1982-2070, limits assumed, looked up): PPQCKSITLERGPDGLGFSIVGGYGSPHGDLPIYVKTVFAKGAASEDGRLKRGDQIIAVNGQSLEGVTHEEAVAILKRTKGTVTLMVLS

[18] = target: T13, MLLT4, P55196
T13 sequence (P55196 1002-1103, limits assumed, looked up): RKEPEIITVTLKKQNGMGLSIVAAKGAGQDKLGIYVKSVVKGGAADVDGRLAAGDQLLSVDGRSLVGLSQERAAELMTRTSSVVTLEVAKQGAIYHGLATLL

[19] = target: PDZD9, Q8IXQ8
[20] = target: T14, MPDZ_11, O75970
T14 sequence (O75970 1720-1817, limits assumed, looked up): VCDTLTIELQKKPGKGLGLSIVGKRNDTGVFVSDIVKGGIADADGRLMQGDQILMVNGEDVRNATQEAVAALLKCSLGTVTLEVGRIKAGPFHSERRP

[21] = target: DVL2, O14641
[22] = target: SCRIB_4, Q14160
SCRIB_4, Q14160, sequence (Q14160 1095-1204): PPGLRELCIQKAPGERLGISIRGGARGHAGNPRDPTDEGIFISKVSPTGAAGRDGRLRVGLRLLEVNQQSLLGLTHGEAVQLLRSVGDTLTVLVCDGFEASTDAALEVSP

SDCBP_1, O00560, sequence (O00560 111-198): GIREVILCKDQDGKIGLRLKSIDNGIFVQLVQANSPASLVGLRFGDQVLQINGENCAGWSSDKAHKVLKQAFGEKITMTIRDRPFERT
PDZD9, Q8IXQ8, sequence (Q8IXQ8 23-120): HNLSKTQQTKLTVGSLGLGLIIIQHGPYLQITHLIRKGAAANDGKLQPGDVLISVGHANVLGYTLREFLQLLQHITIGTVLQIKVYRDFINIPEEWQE
DVL2, O14641, sequence (O14641 260-359): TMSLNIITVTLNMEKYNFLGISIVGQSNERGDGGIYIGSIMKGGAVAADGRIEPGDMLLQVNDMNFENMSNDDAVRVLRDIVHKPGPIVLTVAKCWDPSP
PREX1_1, Q8TCU6, sequence (Q8TCU6 608-718): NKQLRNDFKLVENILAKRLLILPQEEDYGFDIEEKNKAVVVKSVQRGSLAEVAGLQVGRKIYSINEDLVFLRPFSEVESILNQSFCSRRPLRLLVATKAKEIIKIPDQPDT
PARD3B_3, Q8TEW8, sequence (Q8TEW8 490-594): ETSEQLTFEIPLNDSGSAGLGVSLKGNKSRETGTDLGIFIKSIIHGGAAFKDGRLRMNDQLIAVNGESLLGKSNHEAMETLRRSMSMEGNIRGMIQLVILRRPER
MAGI3_3, Q5TCQ9, sequence (Q5TCQ9 572-655): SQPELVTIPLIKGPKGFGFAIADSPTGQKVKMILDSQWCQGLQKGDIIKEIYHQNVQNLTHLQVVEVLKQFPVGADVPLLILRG

B1: HPV51-E6, P26554 (peptide)
chain: RTRQRNETQV
In the case of B1, the pKd [1] is reported as “below the threshold”, the pKd [2] is reported as 4.34 and the pKd [3] is reported as “below the threshold”. The pKd [4] was “below the threshold”, the pKd [5] was “below the threshold” and the pKd [6] was “below the threshold”. For the same binder, the pKd [7] was “below the threshold”, the pKd [8] was “below the threshold” and the pKd [9] was 5.06. The pKd [10] was “below the threshold”, the pKd [11] was “below the threshold” and the pKd [12] was “below the threshold”. The pKd [13] was “below the threshold”, the pKd [14] was “below the threshold” and the pKd [15] was 5.81. For the same binder, the pKd [16] was “below the threshold”, the pKd [17] was “below the threshold” and the pKd [18] was “below the threshold”. The pKd [19] was “below the threshold”, the pKd [20] was “below the threshold” and the pKd [21] was 4.59. For the same binder, the pKd [22] was 4.27.

B2: ASIC3, Q9UHC3 (peptide)
chain: HRTCYLVTQL
In the case of B2, the pKd [1] is reported as “below the threshold”, the pKd [2] is reported as “below the threshold” and the pKd [3] is reported as 5.52. The pKd [4] was 3.99, the pKd [5] was “below the threshold” and the pKd [6] was 4.35. The pKd [7] was “below the threshold”, the pKd [8] was “below the threshold” and the pKd [9] was “below the threshold”. For the same binder, the pKd [10] was 4.33, the pKd [11] was “below the threshold” and the pKd [12] was “below the threshold”. The pKd [13] was “below the threshold”, the pKd [14] was 4.31 and the pKd [15] was 4.4. For the same binder, the pKd [16] was “below the threshold”, the pKd [17] was “below the threshold” and the pKd [18] was “below the threshold”. For the same binder, the pKd [19] was “below the threshold”, the pKd [20] was “below the threshold” and the pKd [21] was “below the threshold”. For the same binder, the pKd [22] was “below the threshold”.
